In patent US20190135928A1 (Bristol-Myers Squibb, published 2019):

How the values were obtained:
Assay in all cases: cell-based or functional assay
[1] = molecular target: T1, human TL1A (in-house) (human, UniProt O95150 57-251, limits assumed)
T1 sequence: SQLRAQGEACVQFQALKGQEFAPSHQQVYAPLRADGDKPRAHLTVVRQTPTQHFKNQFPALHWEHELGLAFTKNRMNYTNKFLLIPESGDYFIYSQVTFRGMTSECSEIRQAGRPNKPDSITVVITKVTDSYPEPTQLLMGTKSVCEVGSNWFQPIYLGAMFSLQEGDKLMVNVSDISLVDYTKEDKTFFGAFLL

[2] = molecular target: T1, human TL1A (in-house); remark: listed apart in the source
[3] = molecular target: T1, human TL1A (in-house); remark: listed apart in the source

B1: TL1A antibody 10A4.F7.2E8 huIgG4 (antibody, V domains shown)
VH: QLQLQESGPGLVKPSETLSLTCTVSGGSISSRSYYWGWIRQPPGKGLEWIGSIYYNGRTYYNPSLKSRVTISVDTSKNQFSLKLSSVTAADTAVYYCAREDYGDYGAFDIWGQGTMVTVSS
VL: AIQLTQSPSSLSASVGDRVTITCRASQGISSALAWYQQKPGKAPKLLIYDASSLESGVPSRFSGSGSGTDFTLTISSLQPEDFATYYCQQFNSYPLTFGGGTKVEIKR
[1]
  EC50, TL1A + IL-12 + IL-18 driven IFNg (Hu PBMCs) (2.45 mg/ml), Donor B, ELN ref 97305-041: 0.283 nM
  EC50, TL1A + IL-12 + IL-18 driven IFNg (Hu PBMCs) (2.45 mg/ml), Donor B, ELN ref 97305-044: 0.211 nM
  EC50, TL1A + IL-12 + IL-18 driven IFNg (Hu PBMCs) (2.45 mg/ml), Donor B, ELN ref 97305-047: 0.185 nM
  EC50, TL1A + IL-12 + IL-18 driven IFNg (Hu PBMCs) (2.45 mg/ml), Donor B, ELN ref 97305-050: 0.163 nM
  EC50, TL1A + IL-12 + IL-18 driven IFNg (Hu PBMCs) (2.45 mg/ml), Donor B, ELN ref 97305-061: 0.152 nM
  EC50, TL1A + IL-12 + IL-18 driven IFNg (Hu PBMCs) (2.45 mg/ml), Donor B, ELN ref 99932-005481: 0.196 nM
[2]
  EC50, TL1A + IL-12 + IL-18 driven IFNg (Hu Tcells) (2.45 mg/ml), Donor A, ELN ref 97305-062: 0.18 nM
  EC50, TL1A + IL-12 + IL-18 driven IFNg (Hu Tcells) (2.45 mg/ml), Donor A, ELN ref 97305-064: 0.235 nM
  EC50, TL1A + IL-12 + IL-18 driven IFNg (Hu Tcells) (2.45 mg/ml), Donor A, ELN ref 97305-066: 0.331 nM
  EC50, TL1A + IL-12 + IL-18 driven IFNg (Hu Tcells) (2.45 mg/ml), Donor A, ELN ref 97305-077: 0.241 nM
  EC50, TL1A + IL-12 + IL-18 driven IFNg (Hu Tcells) (2.45 mg/ml), Donor A, ELN ref 97305-082: 0.034 nM
  EC50, TL1A + IL-12 + IL-18 driven IFNg (Hu Tcells) (2.45 mg/ml), Donor A, ELN ref 99932-003797: 0.355 nM
  EC50, TL1A + IL-12 + IL-18 driven IFNg (Hu Tcells) (2.45 mg/ml), Donor A, ELN ref 99932-004083: 0.393 nM
  EC50, TL1A + IL-12 + IL-18 driven IFNg (Hu Tcells) (2.45 mg/ml), Donor A, ELN ref 99932-004084: 0.367 nM
  EC50, TL1A + IL-12 + IL-18 driven IFNg (Hu Tcells) (2.45 mg/ml), Donor A, ELN ref 99932-004439: 0.185 nM
  EC50, TL1A + IL-12 + IL-18 driven IFNg (Hu Tcells) (2.45 mg/ml), Donor A, ELN ref 99932-004774: 0.22 nM
  EC50, TL1A + IL-12 + IL-18 driven IFNg (Hu Tcells) (2.45 mg/ml), Donor A, ELN ref 99932-004955: 0.172 nM
  EC50, TL1A + IL-12 + IL-18 driven IFNg (Hu Tcells) (2.45 mg/ml), Donor B, ELN ref 97305-062: 0.259 nM
  EC50, TL1A + IL-12 + IL-18 driven IFNg (Hu Tcells) (2.45 mg/ml), Donor B, ELN ref 97305-064: 0.199 nM
  EC50, TL1A + IL-12 + IL-18 driven IFNg (Hu Tcells) (2.45 mg/ml), Donor B, ELN ref 97305-066: 0.347 nM
  EC50, TL1A + IL-12 + IL-18 driven IFNg (Hu Tcells) (2.45 mg/ml), Donor B, ELN ref 97305-077: 0.258 nM
  EC50, TL1A + IL-12 + IL-18 driven IFNg (Hu Tcells) (2.45 mg/ml), Donor B, ELN ref 97305-082: 0.039 nM
  EC50, TL1A + IL-12 + IL-18 driven IFNg (Hu Tcells) (2.45 mg/ml), Donor B, ELN ref 99932-003797: 0.312 nM
  EC50, TL1A + IL-12 + IL-18 driven IFNg (Hu Tcells) (2.45 mg/ml), Donor B, ELN ref 99932-004083: 0.311 nM
  EC50, TL1A + IL-12 + IL-18 driven IFNg (Hu Tcells) (2.45 mg/ml), Donor B, ELN ref 99932-004084: 0.303 nM
  EC50, TL1A + IL-12 + IL-18 driven IFNg (Hu Tcells) (2.45 mg/ml), Donor B, ELN ref 99932-004439: 0.194 nM
  EC50, TL1A + IL-12 + IL-18 driven IFNg (Hu Tcells) (2.45 mg/ml), Donor B, ELN ref 99932-004774: 0.319 nM
  EC50, TL1A + IL-12 + IL-18 driven IFNg (Hu Tcells) (2.45 mg/ml), Donor B, ELN ref 99932-004955: 0.211 nM
[3]
  EC50, TL1A + IL-12 + IL-18 driven IFNg (Hu Tcells) (4.8 mg/ml), Donor A, ELN ref 97305-082: 0.162 nM
  EC50, TL1A + IL-12 + IL-18 driven IFNg (Hu Tcells) (4.8 mg/ml), Donor A, ELN ref 99932-003797: 0.303 nM
  EC50, TL1A + IL-12 + IL-18 driven IFNg (Hu Tcells) (4.8 mg/ml), Donor A, ELN ref 99932-004083: 0.27 nM
  EC50, TL1A + IL-12 + IL-18 driven IFNg (Hu Tcells) (4.8 mg/ml), Donor A, ELN ref 99932-004084: 0.316 nM
  EC50, TL1A + IL-12 + IL-18 driven IFNg (Hu Tcells) (4.8 mg/ml), Donor A, ELN ref 99932-004439: 0.262 nM
  EC50, TL1A + IL-12 + IL-18 driven IFNg (Hu Tcells) (4.8 mg/ml), Donor A, ELN ref 99932-004774: 0.177 nM
  EC50, TL1A + IL-12 + IL-18 driven IFNg (Hu Tcells) (4.8 mg/ml), Donor A, ELN ref 99932-004955: 0.193 nM
  EC50, TL1A + IL-12 + IL-18 driven IFNg (Hu Tcells) (4.8 mg/ml), Donor A, ELN ref 99932-005751: 0.216 nM
  EC50, TL1A + IL-12 + IL-18 driven IFNg (Hu Tcells) (4.8 mg/ml), Donor B, ELN ref 97305-082: 0.143 nM
  EC50, TL1A + IL-12 + IL-18 driven IFNg (Hu Tcells) (4.8 mg/ml), Donor B, ELN ref 99932-003797: 0.361 nM
  EC50, TL1A + IL-12 + IL-18 driven IFNg (Hu Tcells) (4.8 mg/ml), Donor B, ELN ref 99932-004084: 0.345 nM
  EC50, TL1A + IL-12 + IL-18 driven IFNg (Hu Tcells) (4.8 mg/ml), Donor B, ELN ref 99932-004439: 0.157 nM
  EC50, TL1A + IL-12 + IL-18 driven IFNg (Hu Tcells) (4.8 mg/ml), Donor B, ELN ref 99932-004774: 0.267 nM
  EC50, TL1A + IL-12 + IL-18 driven IFNg (Hu Tcells) (4.8 mg/ml), Donor B, ELN ref 99932-004955: 0.287 nM
  EC50, TL1A + IL-12 + IL-18 driven IFNg (Hu Tcells) (4.8 mg/ml), Donor B, ELN ref 99932-005751: 0.138 nM
